The target of assay [1] is T1, HLA-B*0702 molecule on HLA-B*0702 transfected TAP deficient T2 cells (T2-B7) (human). Description: MHC stabilization assay on T2-B7 cells, ME-1 staining; ratio of concentration inducing 20% of HLA-B*0702 expression against reference peptide CMV265-274. The conditions noted are these: remark: other sources report otherwise.
Assay [2] addresses T1, HLA-B*0702 molecule on HLA-B*0702 …. Description: MHC stabilization assay on T2-B7 cells, flow cytometry with ME.1; ratio of concentration giving 20% of maximal binding against reference peptide R10TV. The conditions noted are these: remark: other sources report otherwise. In general terms: A flow cytometer gives signals particle by particle.

Bounds are passed on as bounds.

Take DPRRLVQLL [hTERT peptide p444 (…, residues 444-452)]: the RA (relative affinity) in assay [1] was above 10.

In the case of RPAEEATSL [hTERT peptide p277 (…, residues 277-285)], the relative avidity in assay [2] came to 4.7.

Source of the values: US20090175892A1.
